The text below walks through data of paper PMC9465852, “Comparative analyses of vertebrate CPEB proteins define two subfamilies with coordinated yet distinct functions in post-transcriptional gene regulation”.

The target of data set [1] is T1, CPEB4 (Xenopus laevis, UniProt A0A1L8GV75 1-702). Put plainly: AlphaScreen; 50 nM protein, 0.5-75 nM RNA; CPEB4 binds A- and G-CPE equally well; 10 mM HEPES pH 7.4, 100 mM KCl, 3 mM MgCl2, 1 mM DTT, 0.2 mg/mL tRNA, 0.1% Tween; room temperature; 50 or 75 nM protein. Particulars: protein: recombinant; tags: 6xHis; label: 3' biotin; single strand.
T1 sequence (A0A1L8GV75 entry or part of it): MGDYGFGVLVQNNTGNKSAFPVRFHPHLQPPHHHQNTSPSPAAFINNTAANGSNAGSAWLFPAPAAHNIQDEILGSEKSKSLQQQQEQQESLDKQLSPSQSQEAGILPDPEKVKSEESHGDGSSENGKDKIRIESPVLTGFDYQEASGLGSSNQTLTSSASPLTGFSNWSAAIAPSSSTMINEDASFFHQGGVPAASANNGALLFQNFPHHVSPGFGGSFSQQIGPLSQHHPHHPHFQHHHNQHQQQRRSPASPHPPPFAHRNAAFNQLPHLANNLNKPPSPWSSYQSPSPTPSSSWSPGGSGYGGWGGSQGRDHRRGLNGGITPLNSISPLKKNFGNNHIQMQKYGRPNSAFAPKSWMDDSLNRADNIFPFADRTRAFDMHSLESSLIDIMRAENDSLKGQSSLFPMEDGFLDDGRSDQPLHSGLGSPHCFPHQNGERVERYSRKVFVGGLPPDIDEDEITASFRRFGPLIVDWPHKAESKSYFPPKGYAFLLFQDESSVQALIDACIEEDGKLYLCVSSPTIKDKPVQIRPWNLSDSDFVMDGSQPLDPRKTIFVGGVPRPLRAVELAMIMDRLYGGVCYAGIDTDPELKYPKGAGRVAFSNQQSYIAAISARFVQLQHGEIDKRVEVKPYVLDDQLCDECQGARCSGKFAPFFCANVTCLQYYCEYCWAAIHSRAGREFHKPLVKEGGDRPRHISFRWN
Data set [2] addresses T1, CPEB4. Put plainly: AlphaScreen; 50 nM protein, 0.5-75 nM RNA; equal to or better than CPE-A; 10 mM HEPES pH 7.4, 100 mM KCl, 3 mM MgCl2, 1 mM DTT, 0.2 mg/mL tRNA, 0.1% Tween; room temperature; 50 or 75 nM protein. Particulars: protein: recombinant; tags: 6xHis; label: 3' biotin; single strand.

Regarding AGUGUACAGUGUUUUUAAUAGUUUGUUG (ssRNA, 3' biotin) [CPE-A], in the data set with CPEB4 [1], the binding result is recorded as “binds”.

With AGUGUACAGUGUUUUUGUAAGUUUGUUG (ssRNA, 3' biotin) [CPE-G], the binding result with CPEB4 [2] is “binds”.
